Experimental data reported in paper PMC7617732 (Science translational medicine, 2024).
Where a chain is given by its changes, count along the chain named.

B1: 95Mat2 (antibody, V domains shown)
VH: QVQLVQSGAEVKKPGSSVKVSCKASGGTFSSYAISWVRQAPGQGLEWMGGIIPIFGTANYAQKFQGRVTITADESTSTAYMELSSLRSEDTAVYYCARIPLVWYESGPYESGVFDYWGQGTLVTVSS
VL: not shown
B2: 95Mat3 (antibody, V domains shown)
VH: B1 VH with T57P
VL: not shown
B3: 95Mat4 (antibody, V domains shown)
VH: B1 VH with V102H
VL: not shown
B4: 95Mat6 (antibody, V domains shown)
VH: B1 VH with T57H, V102I
VL: not shown

Biological target: T1, 3FTx-L15 (recombinant long-chain three-finger α-neurotoxin variant) (Ophiophagus hannah (king cobra), long …)
T1 chain: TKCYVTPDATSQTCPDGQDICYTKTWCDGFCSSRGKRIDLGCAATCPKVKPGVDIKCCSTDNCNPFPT

Binder | Kd [nM] | binding result
B1 | 0.1 | 
B2 |  | binds
B3 |  | binds
B4 | 0.103 | 
